From the nanobody polyreactivity screen of Harvey et al. (2022)

Experiment: yeast display, Sf9 membrane polyspecificity reagent, FACS + sequencing; frameworks hold sequencing errors
Summary of the method: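 Polyreactivity labels are assigned by the sorting gate from which each nanobody was recovered. The gates were low and high (top ~1%), set on anti-HA fluorescence for expression and streptavidin fluorescence for reagent binding. Before sorting, galactose-induced (36–48 hours) yeast display cells were stained for 1 hour at 4 °C with 10% biotinylated, detergent-solubilized Sf9 membrane reagent.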

Sequence	polyreactivity (PSR sort gate)
QVQLVESGGGLVQAGGSLRLSCAASGFTFYYYALGWYRQAPGKERELVAAISTRDGNTYYADSVKGRFTISRDNAKNTVYLQMNSLKPEDTAVYYCAADSYSGYNYWGQGTQVTVSS	low polyreactivity
QVQLVESGGGLVQAGGSLRLSFAASGSIFLFNAMGWYRQAPGKERELVAAITSPTARTYYADSVKGRFTISRDNAKNTVYLQMNSLKPEDTAVYYCAARYRYAYGYGRGYSWGQGTQVTVSS	high polyreactivity
QDQLVETGGGLVQAGVSLRISCAASGSTFYYNAMGWYRQAPGKERELVAAITWSGDSTYYADSVKGRFTISRDNAKNTVYLQMNSLKPEDTAVYYCNAEYYDYFDYVSDYWGQGTQVTVSS	low polyreactivity
QVQLVESGGGLVQAGGSLRLSCAASGFTFRWYDMGWYRQAPGKERELVAVISRSGGRTYYADSVKGRFTISRDNAKNTVYLQMNSLKPEDTAVYYCAADWWGYDGRYDYWGQGTQVTVSS	high polyreactivity
QVQLVESGGGLVQAVGSLRLSCAASGRTFARNAMGWYRQAPGKERELVAVITSGTSTYYADSVKGRFTISRDYAKNTVYLQMNSLKPEDTAVYYCAARSPGRAGIYYSWGQGTQVTVSS	high polyreactivity
QVQLVESGGGLVQAGGSLRLSCAASGSIFPPYAMGWYRQAPGKERELVATITIRGGSTYYADSVKGRFTISRDNAKNTVYLQMNSLKPEDTAVYYCAADYTKYYRRYYYWGQGTQVTVSS	high polyreactivity
QVQLVESGGGLVQAGGSLRLSCAASGSIFYYNDRGWSRQAPGKDRELVATIRSGGNTNYADSVKGRFTISRDIAKNTVYLQMNSLKPEDSAVYYCTARGAYHGYRYDSWGQGTQVTVSS	low polyreactivity
QVQHVESGGGLVQAGGSLRLSCAASGSTFPTYAMGWYRQAPGKERELVADITWSGGSTYYADSVKGRFTISRDNAKNTVYLQMNSLKPEDTAVYYCNAAHRKGMYYWGQGTQVTVSS	high polyreactivity
QVQLVESGGGLVQAGGTLRLSCAASGRIFTINAMGWYRQAPGKEREFVAAISGSGGTTYYADSVKGRFTISRDNAMNTVYLQMNSLKPEDTAVYYCAVSQSWYWYYASDYWGQGTQVTVSS	low polyreactivity
QVQLVESGGGLVQAGGSLRLSCAASGRTFDGNTMGWYRQAPGKERELVAAITKRGGSTYYADSVKGRFTISRDNAKNTVYLQMNSLKPEDTAVYYCNAVWRNWYARVDEYDYWGQGTQVTVSS	high polyreactivity
QVQLVESGGGLVQAGGSLRLICAASGRIIRYYAMGWYRQAPGKERELVAITSSGGRTYYADSVKGRFSISRDNAKNTVYLQMNSLKPEDTAVYYCAVDSHCPGRGERFIRLDYWGQGTQVTVSS	low polyreactivity
QVQLVESGGGLVQAGGSLRLSCAASGSTFYRYAMGWYRQAPGKERELVADITRSGDSTYYADSVKGRFTISRDNAKNTVYLQMNSLKPEDTAVYYCAREYPTIRYRLGYWGQGTQVTVSS	low polyreactivity
QVQLVESGGGLVQAGGSLRLSCAASGFNFAIYAMGWYRQAPGKERELVAAINSDGSTYYADSLKGLFTISRDNAKNSDYLQINSLKPEDTAVYYCNAETAGHDMDYWGQGTQVTVSS	low polyreactivity
QVQQQESGGGLVQVGGSQRLSCAASGNIFYNYAMGWYRHAQGKEREFDATINHGTSINYADSVKGRFTISRDNAKNTVYLQMNSLKPEDTAVYYCAADLSWTDNLFYWGQGTQVTVSS	low polyreactivity
QVQLVESGGGLVQAGGSLRLSCAASGSIFPDYAMGWYRQAPGKERELVAADSVKGRFTISRDNAKNTVYLQMNSLKPEDTAVYYCNKDYIIRRGPIVYYGFDYWGQGNQVTVSS	low polyreactivity
QVQLVESGGGLVQAGGSLRLSCPASGSIFDYYAMGWYRQPPGKEREMVAAINISGGDTYYADSVKGRFTISRDNAKNTVYLQMNSLKPEDTAVYYCAADWVTWWFSRVGWDYGYWGQGTQVTVSS	low polyreactivity
QVQLVESGGGLVQAGGSLRLICAASGSTFYHNVMGWYRQAPGKERELLASIYRGGSTYYADSVKGRFTISRDNAKNTVYVQMNSLKPEDTAVYYCAADLSSDSSYSGYDYSGQGTQVTVSS	low polyreactivity
QVQLVESGGGLVQAGGSLRISCAASGNTFWKYAMGWYRQAPGKERELVAAISKSGGSTYYADSVKGRFTISRDNAKNTVYLQMNSLKPEDTAVYYCAAVNYRWYSRNYDHYYWGQGTQVTVSS	high polyreactivity
QVQLVESGGGLVQAGGSLRLSCAASGGIFVQNAMGWYRQAPGKERELVAAITNGGSTYYADSVKGRFTISRDNAKNTVYLQMNSLKPEDTAVYYCAVDEYFIQDMDYWGQGTQVTVSS	low polyreactivity
QVQLVESGGGLVQAGGSLRLSCAASGRIFLWYAMGWYRQAPGKERELVASITRSGVTTYYADSVKGRFTISRDNAKNTVYLQMNSLKPEDTAVYYCNKDFRGDAIKLDVNYWGQGTQVTVSS	low polyreactivity
QVQLVESGGGLVQAGGSLSLICAASGSIFTRNAMGWYRQAPGKERELVAAISRRGVSTYYADSVKGRFTNSRDNAKNTVYLQMNSLKPEDTAVYYCNKLSSYVVARRTTEYDYWGQGTQVTVSS	high polyreactivity
QVQLVESGGGLVQAGGSLGLSCAASGSIFSSNVMGWYRQAPGKERELVAAISGGGGSTYYADSVKGRFTISRDNAKNTGYLQMNSLKPEDTAVYYCNRVTTWARTPKAYGYWGQGTQVTVSS	high polyreactivity

Sequence	polyreactivity (PSR sort gate)
QVQLVESGGGLVQAGGSLRLSCAASGITIGSNVMGWYRQAPGKERELVAAISQSGGRTYYADSVKGRFTISRDNAKNTVYLQMNSLKPEYTAVYYCAKRQRSFYGRPMGDYWGQGTQVTVSS	high polyreactivity
QVQLVESGGGLVQAGGSLRLSCAASGSTLARYAMGWYRQAPGKERELVAAISSDGRTYYADSVKGRFTISRDNAKNTVYLQIYSLKPEDTAVYYCATLRPYAYPQYDSWGQGTQVTVSS	high polyreactivity
QVQSVESCGGLVQAGRSLRLSCAPSGSIFADYAMGWYSQAPGKERELVAVISRRGGTTYYADSVKGRFTISRDNAKNSVYLQMNSLKPEDTAVYYCAARRSFNEYDYWGKGTQVTVSS	high polyreactivity
QVQLVESGGGLVQAGGSLRLSCAASGSTFASYAMGWYRQAPGKEREFVAAITRSGTSTYYADSVQGRFTISRDNAKNTVYLQMNSLKPEDTAVYYCNATRRTVGFGYWGQGTQVPVSS	high polyreactivity
QVHLVESGGGLVQAGGSLRLSCAASGRTFINYAMGWYRQAPGKERELVAAITTGGRTNYADSVKGRFTISRDNAKNTVYLQMNSLKPEDTAVYYCAADRYYWGRYTLNYWGQGTQVTVSS	low polyreactivity
QVQLVESGGGLVQAGGSLRLSCAASGRTFPAYAMGWYRQAPGKERELVAAISRGGSTYYADSVKGRFTISRDNAKNTVYLQMNSLKPEDTAVYYCAARYSYYRQGDSWYNYNYWGQGTQVTVSS	high polyreactivity
QVQLVESGGGLVQAGGSLRLSCAASGRTFYYNAMGWYRQAHGKERQLVADINWSGVRTYYADSVKGRFTISRDNAKNTVYLQMNSLKPEDTAVYYCAARVGPYSLAVDGFKHGYWGQGTQVTVSS	low polyreactivity
QVQIVESGGGVVQAGGILRLSCAASGYTFTVYGMGWYRQAPGKERELVARITWSGGTTRYADSVKGRFTISRDNAKNNVYLQMNSLKPEDTAVYYCAASYWRPKRYRYDYWGQGTQVTVSS	high polyreactivity
QVQLVESGGGLVQAGGSLRLSCAPSGRTFYYYAMGWYRQAPGKERELVAAISRGSTYYADSVKGRFTISRDNAKNTVYLQMNSLKPEDTAVYYCAARYHNYWNRYIYDYWGQGTQVTVSS	high polyreactivity
QVQLVESGGGLVQAGGSLRLSCAASGFIFVFYDMGWYRQAPGKERELVAGITRNDGSTYYADSVKGRFKISRDNAKNTVYLQMNSLKPEDTAVYYCAAESAGSYLDYYWAYGYWGQGTQVTVSS	low polyreactivity
QVQLVESGGGLVQAGGSLRLSSAASGFIFIINAMGWYRQAPGKEREFVAAITGSGGSTYYADSVKGRFTISRDNAKNTVYLQMNSLKPEDTAVYYCANVGPYYSGKVYGRTYYSRYGYWGQGTQVTVSS	low polyreactivity
QVQLVESGGGLVQAGGSLRLSCAASGIIFPWSTMGWYRQAPGKERELVAAISSGGRTNYADSVKGRFTISRDNAKNTVYLQMNSLKPEDTAVYYCAAKYYRDRDWGQGTQVTVSS	high polyreactivity
QVQLVESGGGLVQAGGSLRLSCAATGFIFYEYPMGWYRQAPGKERELVASINSDGRTDYADSVKGRFTISRDNAKNTVYLQMNSLKPEDTAVYYCAAALGYYGRHPYDYWGQGTQVTVSS	low polyreactivity
QVQLVESGGGLVQAGGSLRLSCAASGSILNFYAMGWYRQAPGKERELVAAISSGGSTNYADSVKGRFTISRDNAKNTVYLQMNSLKPEDTAVYYCAATGGDRYEAYYYWGQGTQVTVSS	low polyreactivity
QVQLVESGGGLVQAGGSLRLSCAASGSIFYYNAMGWYRQAPGKERELDANISWNGASTYYADSVKGRFTISRDNAKNSVYLQMLSLKPEDTAVYYCATAGKGDPPWLPSEVTDYYYWGQGTQVTVSL	low polyreactivity
QVQLVESGGGLVQAGGSLRLSCAASGSIFDWNAMGWYRQAPGKERELVATISWDGGSTYYADSVKGRFTISRDNSKNTVYLQMNSLKPEDTAVYYCATVFTGKPAYYARTKYDYWGQGTQVTVSS	low polyreactivity
QVQLVESGGGLVQAGGILRLSCAASGRTFYYYAMGWYRHERGKERELVAAISISGGTNYADSVKGRFTISRDNAKNTVYLQMNSLKPEDTAVYYCAAYLRHESPSIWDRYDYWGQGTQVTVSS	low polyreactivity
QVQLVESGGGLVQAGGSLRLSCAASGRTIKYYAMGWYRQAPGKERELVAVISWSGGSTYYADSVKGRFTISRDNAKNTVYLQMNSLKPEDTAVYYCNAVHQYRRRYNYWGQGTQVTVSS	high polyreactivity
QVQLVESGGGLVQAGGSLRLSCAASGSIFSYNTMGWYRQAPGKERELVASISSSGGTTYYADSVKGRFTISRDNAKNTVYLQMNSLKPEDTAVYYCAAKLRSYYSGPRYYYWGQGTQVTVSS	high polyreactivity
QVQLVESGGGLVQAGGSLRLSCAASGSIFNWNAKAWYRQAPVKERELVAAITGSGTSTYYADSVKGRFTISPDYAKNTVYLQMNSLKPQDTAVYYCAVTRRSRYGYWGQGTQVTVSS	high polyreactivity
QVQLVESGGGLVQAGRSLRLSCAASGLTFGQYAMGWYRQAPGIERELVAAMNWSGDGTYYADSVKGRFTISRDNAKNTVYLQMKSLKPEDTAVYYCNAGGRRYYYIGYDYWGQGTQLTVSS	low polyreactivity
